Paper PMC3485694 (Structure (London, England : 1993), 2012)

B1: human HisRS Δ507–509 (domain or fragment, UniProt P12081 1-506, looked up)
chain: MAERAALEELVKLQGERVRGLKQQKASAELIEEEVAKLLKLKAQLGPDESKQKFVLKTPKGTRDYSPRQMAVREKVFDVIIRCFKRHGAEVIDTPVFELKETLMGKYGEDSKLIYDLKDQGGELLSLRYDLTVPFARYLAMNKLTNIKRYHIAKVYRRDNPAMTRGRYREFYQCDFDIAGNFDPMIPDAECLKIMCEILSSLQIGDFLVKVNDRRILDGMFAICGVSDSKFRTICSSVDKLDKVSWEEVKNEMVGEKGLAPEVADRIGDYVQQHGGVSLVEQLLQDPKLSQNKQALEGLGDLKLLFEYLTLFGIDDKISFDLSLARGLDYYTGVIYEAVLLQTPAQAGEEPLGVGSVAAGGRYDGLVGMFDPKGRKVPCVGLSIGVERIFSIVEQRLEALEEKIRTTETQVLVASAQKKLLEERLKLVSELWDAGIKAELLYKKNPKLLNQLQYCEEAGIPLVAIIGEQELKDGVIKLRSVTSREEVDVRREDLVEEIKRRTGQPL
B2: human HisRS Δ1–53_507–509 (domain or fragment, UniProt P12081 54-506, looked up)
chain: FVLKTPKGTRDYSPRQMAVREKVFDVIIRCFKRHGAEVIDTPVFELKETLMGKYGEDSKLIYDLKDQGGELLSLRYDLTVPFARYLAMNKLTNIKRYHIAKVYRRDNPAMTRGRYREFYQCDFDIAGNFDPMIPDAECLKIMCEILSSLQIGDFLVKVNDRRILDGMFAICGVSDSKFRTICSSVDKLDKVSWEEVKNEMVGEKGLAPEVADRIGDYVQQHGGVSLVEQLLQDPKLSQNKQALEGLGDLKLLFEYLTLFGIDDKISFDLSLARGLDYYTGVIYEAVLLQTPAQAGEEPLGVGSVAAGGRYDGLVGMFDPKGRKVPCVGLSIGVERIFSIVEQRLEALEEKIRTTETQVLVASAQKKLLEERLKLVSELWDAGIKAELLYKKNPKLLNQLQYCEEAGIPLVAIIGEQELKDGVIKLRSVTSREEVDVRREDLVEEIKRRTGQPL

Molecular target: the molecule itself
Test: crystal structure

Protein | binding result | stoichiometry N
B1 | binds | 
B2 |  | 2
